In the nanobody polyreactivity screen of Harvey et al. (2022):

Assay: yeast display, Sf9 membrane polyspecificity reagent, FACS + sequencing; frameworks hold sequencing errors
In short: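 Nanobodies from a synthetic yeast display library (Saccharomyces cerevisiae BJ5465), induced 36–48 hours with galactose, were stained 1 hour at 4 °C with 10% biotinylated, detergent-solubilized Sf9 membrane reagent, enriched on streptavidin microbeads, then FACS-sorted. Anti-HA (expression) and streptavidin (reagent binding) fluorescence set low and high (top ~1%) gates. Polyreactivity labels come from the gate of origin. Genes were colony-PCR amplified, MiSeq 2 × 250 sequenced and filtered by CDR length.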

Row | Sequence | polyreactivity (PSR sort gate)
1 | EVQLVESGGGLVQAGGSLRLICAASGSIFRDNAMGWYRQAPGKERELVARITWSGTRTYYADSVKGRFTISRDKAKNTVYLQMNSLKPEDTAVYYCNKDRRTIPPSGNDYWGQGTQVTVSS | low polyreactivity
2 | QVQLVESGGGLVQAGGSLRLSCAASGLTFRYYAMGWYIQAPGKERELVATITATDGSTYYADSVKGRFTISRDNAKNTVYLQMNSLKPEDTAVYYRAKTYTEYSVTRSGARMDYWGQGTQVTVSS | low polyreactivity
3 | QVQLVESGGGLVQAGGSLRLSCAASGSTFDHYTMGWYRPAPGKERELVAAINRIGDSTYYADSVKGRFTISRDNAKNTVYLQMNSLKPEDTAVYYCAARHVPRFNKYGYWGQGTQVTVSS | high polyreactivity
4 | QVQLQECGGGLEQAGGSLRLSCAASGTFSNSVKWLYCQARGKEREFVATIGVGGSTNYADSVKGRFTISRDNAKNTVYLQMNSLKPEDTAVYHCAAYGAASNFHYYRGQGTQVTVSS | low polyreactivity
5 | QDQLVESGGGLVQAGGSLRLSCAASGSILRAYAMGWYRQAPGKERELVADIDWSAGITHYADSVKGRFTISRDNAMNPVYLQMNSLKPEDTAVYYCSARYYWYDYIVYYGDYWGQGTLVTVSS | high polyreactivity
6 | QVQLVESGGGLVQAGGSLRLSCAASGSIFRGNSMGWYRQAPGKERELVAVITWSGGSTYYADSVKGRFTISRDNAKNTVYLQMNSLKPEDTAVYYCNAARKQRVYFAGDYWGQGTQVTVSS | high polyreactivity
7 | QVQLVESGGGLVQAGGSLRLSCAASGSTFRDNAMGWYRQAPGTERELVAAISRRGGNTYYADSVKGRFTISRDNAKNTVYLQMNSLKPEDTAVYYCASEVKTSYSYTHDGYWGQGTKVTVSS | high polyreactivity
8 | QVQLVESGGGLVQAGGSLRLSCAASGSTFGTYAMGWYRQAPGKERELVAAISSGGSTYYADSVKGRFTISRDNAKNTVYLQMNSLKPEDTAVYYCAAGYYWYVWGFGYWGQGTQVSVSS | low polyreactivity
9 | QVQLVESGGGLVQAGGSLRLSCAASGRTIPWNVMGWYRQAPGKERELVATITSRRTSTNYADSVKARFTISRDNAKNTVYLPMNSLKPEDTAVYYCARRTVWGAGHYYYWGQGTQVTVSS | high polyreactivity
10 | QDQLVQSAGGLVQAGGSLRLSCAASGRTIRAYAMGWYRQAPGKEREFVAAITWGDGSTYYADSVNGRFTISRDNAKNTVYLQMKSLKPEDTAVYYCATVQSCRVRTYDYWGQGTQVSVSS | high polyreactivity
11 | QVQLVESAAGLVQAGGSLRLSCAASGRIFGYYTMGWYRQAPGKERELVAAINGRGTSTYYADSVKGRFTISRDNAKYTVYLQMNSLKPEDTAVYYCAAQLYYYGQYKHFDYWGQGTQVTVSS | high polyreactivity
12 | QVQLVESGGGLVQAGGSLRLSCAASGSTFPYYAMGWYRQAPGKEMELVASIRKRGGGTYYADSVKGRFTISRDNAKNTVYLQMNSLKPEDTAVYYCAVRVYQFRYTGYDYWGQGTQVTVSS | high polyreactivity
13 | QVQLVESGGGLVEAGGSLRLSCAASGSTFRWYAMGWYRQAPGKERELVAAISRSGASTYDSDSVKGRFTISRDNAKNTVYLQMNSLKPEDTAVYYCAAKQRTKGDYWRQGTQVTVSS | high polyreactivity
14 | QVQLVESGGGLVQAGGSLRLSCAASGSIFAKYAMGWYRQAPGKDREFVAAIRASGGRTYYADSVKGRFTISRDTAKNTVYLQMNSLKPEDSAVYYCNARKYLIPKMDYWGQGTQVTVSS | high polyreactivity
15 | QVQLVESGGGLVQAGGSLRLSCAASGSTFNVNAMGWYRQAPGKETEFVAAITYRGGRTYYADSVKGRFTISRDNEKNTVYLQMNSLKPEDTAVYYCAADGYRKRGFDYWGQGTQVTVSS | high polyreactivity
16 | QVQLVESGGGLVQAGGSLRLSCAASGGIFDIYAMGWYRQAPGKERELVAANRGSGGRTYYADSVKGRFTISRDNAKNTVYLQMNSLKPEDTAVYYCAARPSIVTGLRYGYWGQGTQVTVSS | high polyreactivity
17 | QVQLVESGGGLVQAGGSLRLSCAASAFTLLSYAMGWYRQAPGKDRELVASITQRGGSTYYADSVKGRFTISRDNAKNTVDLQMNSLKPEDTAVYYCAARSGYGYRYYYWGQGTQVTVSS | low polyreactivity
18 | QVQLVESGGGLVQAGGSLRLSCAASGSTIYHNAMGWYRQAPGKERELVAAISSGGSTHYADSVKGRFTISRDNAKNTVYLQMNSLKPEDTAVYYCATYSSVRQLLWGNGYWGQGTQVTVSS | high polyreactivity
19 | QVQLVESGGGLVQAGGSLRLSCAASGRTFIPYAMGWYRQAPGKERELVAAITSSGGRTYYADSVKGRFTISRDNAKNTVYLQMNSLKPEDTAVYYCNKYARGYDMDYWGQGTQVTVSS | high polyreactivity
20 | QVQLVESGGGLVQAGGSLRLSCAASGRIFVPNAMGWYRQAPGKERELVAAITRSGSTYYADSVKGRFTISRDNAKNTVYLQMNSLKPEDTAVYYCNAASRRFPGKVWDYHYWGQGTQVTVSS | low polyreactivity
21 | QVQLVESGGGLVKAGGSLRLSCAASGLISYPYSMGWYRQSPWKERELVAAITSRGTSTYYADSVKGRFTISRDNAKYTVYLHMNSLKPEDTAVYYCNAVVWRSRVDYYYWGQGTQVTVSS | high polyreactivity
22 | QVQLVESGGCLVQAGGSLRLSCASSGFTIWQNAMGWYRQAPGKERELVAGIRLSGGSTYADSEKGRFTISRDNAKNTVYLQMNSLKPEDTAVYYCAARIAGYYRYRSLRYDYWGQGTQGTVSS | high polyreactivity

Row | Sequence | polyreactivity (PSR sort gate)
23 | QVQLVESGGGLVQAGGSLRLSCASSGSIFQYYVMGWYRPAPGKERELVAAMRRSGTTYYADSVKGRFTISRDNAKHTLDLQMNSLKPEDTAVYYCNKVRGQEPSNYDYWGQGTQVTVSS | low polyreactivity
24 | QVQLVESGGGLVQAGGSLRLSCAASGSIFQVNAMGWYRQAPGKERELVAANRSGGRTTYADSVKGRFTISRDNAKNTVYLQMISLKTEDTAVYYGAAPLYYKSWTYPRLRSGYWGQGTQVTVSS | high polyreactivity
25 | QDHLVESGGGLVQAGGSLRLSCAASGISFSVNAMGWSRQAPGKERELVASISSGGSTNYADSVTGRFTISRDNAKNTVYLQMNSLNPEDTAVSYCAAGYWNDFDWGQGTQVTVSS | low polyreactivity
26 | QVQLVESGGGLVQAGGSLRLSCAASGGIIGAYVMGWYIQAAGKERELVAAISSGGDTNYADTVKGRFTISRDNAKNTVYIQMNSQKPEDTAVSYCAKDPYWTELYPSGDYWGQGTQVTVSS | low polyreactivity
27 | QVQLVESGGGLVQAGGSLRLSCAASGSTFSLYAMGWYRQSPGKETELVASITWGGGSTYADSVKRLFTISRDNAKNTVYLQMNSLKPEDPAVYYCARKYRYRVLYDFAYDHWGQGTEVTVSS | low polyreactivity
28 | QVQLVESGGGLVQAGGSLRLSCAASGITLFYYAMGWYRQAPGKERELVAAISWSGGSTYYADSVKGRFTISRDNAKNTDDLQMNSLKPEDTAVYYCNRVSRAPFDYWGQATQVTVSS | high polyreactivity
29 | QVQLVESGGGLVQAGGSLRLTCAASGITFYGNAMGWYRQAPGKERELVANTYYADSVKGRFTISRDNAKNTVYLQMNSLIAEDTAVYYCATRNARYRSQPPGYDYWGQGTQVTVSS | low polyreactivity
30 | QVQLVESGGGLVQAGGSLRLSCAASGITLTRYAMGWYRQAPGKERELVAAISTGGGSTYYADSVKGRFTISRDNAKNTVYLQMNSLKPEDTAVYYCAARIRFARGYPITRTYDYWGQGTQVTVSS | high polyreactivity
31 | QVQLVESGGGLVQAGGSLRLSCAASGRIFYSYAMGWYRQAPGKERELVAAITDSGGSTYADSVKGRFTISRDNAKNTVYLQMNSLKPEDTAVYADSTYNWYYYYWGQGTQVTVSS | low polyreactivity
32 | QVQLVESGGGLVQAGGSLRLSCAASGFTFPWNVMGWYRQAPGKEREFVAAISKSAGSTFYADSVKGRFTISRDNAKNTVYLQMNSLKPEDTAVYFCAKPRVPGVHVQEMYYWGQGTQVTVSS | low polyreactivity
33 | QVQLVESGGGLVQAGGSLRLSCAASGRTFKNYAMGWYRQAPGKERELVAAISSGGGRTKYADSVKGRFTISRDNAKNSVYLQMNSLKPEDTAVYYCAAAYYYRDDYWGQGTQVTVSS | high polyreactivity
34 | QVQLVESGGGLVQAGGSLRLSCAASGFIFPYYAMGWYRQAPGKERELVAAISARGGSTYYADSVKGRFTISRDNAKNTFYLQMNRLKPEDTAVYYCAAPYPRWTGKDYDYWGQGTQVTVSS | high polyreactivity
35 | QVQLVQSGGGLVQAGGSLRLSCAASGLIFRYYTMGWYRQAPGKERELVAAISSGGSTRYADSVKGRFTISRDNAKNTVYLQMNSLKPEDTAVYYCAAKLYYYVQGRYNYWGQGTQVTVSS | high polyreactivity
36 | QVQLVESGGGLVQAGGSLRLSCAASGSIFGWYVMGWYRQAPGKERELVAAISSVGSTYYADSVKGRFTISRDNAKNTVYLQMNSLKPEDTAVYYCAKLRYPYLFWDDSEYWGQCTQVTVSS | low polyreactivity
37 | QVQLVESGGGLVQAGGSLRLSCAASGSTFRYNAMGWYRQAPGKERELVAGISYRGGTTYYADSVKGRFTISRDNAKNTVYLQMNSLKPEDTAVYYCAADSRAKRYYWGQGTQVTVSS | high polyreactivity
38 | QVQLVESGGGLVQAGGSLRLSCAASGSTFYPYAMGWYRQAPGKERELVAAISSGGSTNYADSVKGRFTISRDNAKNTVYLQMNSLKPEDTAVYYCAAEDWSLYDYGDRLWYSPYYYWGQGTQVTVSS | high polyreactivity
39 | QVQLVESVGGLVQAGGSLRLSCAAYGLTFRYYAMGWYRQSPGKESELDAAISSGGSTNYADSVKGRFTISRDNAKNTVYLQMNSLKPEDTAVYYCAAVSNSKWGRWGRAKYNYWGQGTQVTVSS | high polyreactivity
40 | QVQLVESGGGLVQAGGSLRLSCAASGSTFVGNAMGWYRHAPGKEREMVATISNSGGRTYYADSVKGRFTISRDNAKNTVYLQLNSLKPEDTEVYYCAADHPAFGPGYSFDYWGQGTQVTVSS | low polyreactivity
41 | QDQLVESGGGLVQAGGSLRLSCAASGSTFTGYTMGWYRQAPGKERELVAAITYRGGSTYYADSVKGRFTISRDNAKNTVYLQMNSLKPEDTAVYYCAAVPEYYEYTPYDYWGQGTQVTVSS | low polyreactivity
42 | QVQLVESGGGLDQAGGSLRLSCAASGLTFAKYAMGWYRQAPGKERELVAAIRSGDDTTYADSVKGRFTISRDNAKNTVYLQMNSLKPEDTAVYYCAARYYRTWHGGFGYWGQGTQVTVSS | high polyreactivity
43 | QVQLVESGGGLVQAGGSLRLSCAASGFIIFQYAMGLYRQAPGKERELVAAISGSGVTTYYADSVKGRFTISRDNAKNNVYLQMNSLKPEDTAVYYCNAALSWKYDWGQGTQVTVSS | low polyreactivity
